In US20100247549A1:
Several values for one entry are separate records, joined by “and”; a condition that tells them apart may be missing. Equal entries are not always repeated.

Target: DENV-4 parental viruses
Assay: cell-based or functional assay

B1: Humanized IgG 5H2 ΔD (IgG1 5H2 with a 9-amino-acid deletion, positions 231-239, at the N-terminus of the CH2 domain) (antibody)
heavy: EVQLLESGPGLVKPSETLSLTCTVSGGSISDFYWSWLRQSPGKGLEWIGYAHSRVSAYYNPSLKSRVTISVDTSKNQLSLRLSAVTAADTALYYCARQGTGTTGVSEDFFDLWGQGTKVIVSLASTKGPSVFPLAPSSKSTSGGTAALGCLVKDYFPEPVTVSWNSGALTSGVHTFPAVLQSSGLYSLSSVVTVPSSSLGTQTYICNVDHKPSNTKVDKKVEPKSCDKTHTCPPCPVFLFPPKPKDTLMISRTPEVTCVVVDVSHEDPEVKFNWYVDGVEVHNAKTKPREEQYNSTYRVVSVLTVLHQDWLNGKEYKCKVSNKALPAPIEKTISKAKGQPREPQVYTLPPSRDELTKNQVSLTCLVKGFYPSDIAVEWESNGQPENNYKTTPPVLDSDGSFFLYSKLTVDKSRWQQGNVFSCSVMHEALHNHYTQKSLSLSPGK
light: not shown
PRNT50 titer: 0.03 µg/mL and 0.05 µg/mL
